The target in assay [1] is T1, avidin-c-fms Ig-like 1 domain fusion protein (chicken; human, UniProt P07333 20-126).
T1 construct: Joined through an XhoI site; Captured on biotin beads; also called Ig1 construct; Ig-like loop 1 (IPVI-ALLP); not shown: chicken avidin, N-terminal fusion partner from pCEP4-Avidin(N)
In words: FACS, biotin beads coated with the avidin fusion protein, FITC-2.36 without competitor. On the technique in general: A flow cytometer gives signals particle by particle.

For assay [2], the target named is T2, avidin-c-fms Ig-like 1-4 domain fusion protein (chicken; human, UniProt P07333 20-418).
T2 construct: Captured on biotin beads; also called Ig-like loops 1-4 (IPVI-GTLL); not shown: chicken avidin, N-terminal fusion partner from pCEP4-Avidin(N)
In words: FACS, biotin beads loaded with the avidin fusion protein, FITC-labeled antibody; Neg CM value of this antibody 3.32. On the procedure: (§1) The concentration of each c-fms avidin fusion protein was determined using a quantitative FACS based assay. The c-fms avidin fusion proteins were captured on 6.7 μm biotin polystyrene beads (Spherotech, Inc., Libertyville Ill.). 1× conditioned media (20 and 200 μl) were added to 5 μl (˜3.5×10⁵) beads, and incubated for 1 hr at room temperature with rotation. Conditioned media was removed by centrifugation and samples were washed with PBS containing 0.5% BSA (BPBS). The avidin beads were stained with 200 μl of a 0.5 μg/ml solution of a goat FITC-labeled anti-avidin antibody (Vector Labs, Burlingame, Calif.) in BPBS for 45 minutes at room temperature covered by foil. Following incubation, the beads were recollected by centrifugation, washed with BPBS, and resuspended for analysis in 0.5 ml BPBS. The FITC fluorescence was detected using a FACScan (Becton Dickinson Bioscience, Franklin Lakes, N.J.). The signal was converted to protein mass using a standard curve derived with rAvidin. For epitope mapping, biotin beads were loaded with ˜100 ng of c-fms avidin fusion protein per 3.5×10⁵ beads and brought up to volume with growth medium.
(§2) After incubation for 1 hr at room temperature, 3 ml washing buffer (BPBS) was added and the antibody-beads complexes were collected by centrifugation for 5 min at 750×g. The pellet was washed in 3 ml of BPBS. The antibody bound to avidin-bead complexes was detected by FACS (Becton Dickinson) analysis. The mean (X) fluorescent intensity was recorded for each sample.

Assay [3] has as its target T3, avidin-c-fms Ig-like 1-5 domain fusion protein (full extracellular domain) (chicken; human, UniProt P07333 20-512).
T3 construct: Captured on biotin beads; also called c-fms ECD Ig1-5 construct; human c-fms ECD; not shown: chicken avidin, N-terminal fusion partner from pCEP4-Avidin(N)
The description is as above. How it is done: as §1, §2

Assay [4] addresses T4, avidin-c-fms Ig-like 1-2 domain fusion protein (chicken; human, UniProt P07333 20-223).
T4 construct: Captured on biotin beads; also called Ig1-2 construct; Ig-like loops 1 and 2 (IPVI-AQIV); not shown: chicken avidin, N-terminal fusion partner from pCEP4-Avidin(N)
The description is as above. How it is done: as §1, §2

Assay [5] addresses T1, avidin-c-fms Ig-like 1 domain fusion …. The description is as above. How it is done: as §1, §2
Assay [6] has the same target. In words: FACS, biotin beads coated with the avidin fusion protein, FITC-1.2 without competitor.
Assay [7] has as its target T2, avidin-c-fms Ig-like 1-4 domain fusion …. The assay is described as follows: FACS, biotin beads loaded with the avidin fusion protein, FITC-labeled antibody; Neg CM value of this antibody 4.74. How it is done: as §1, §2
Assay [8] has as its target T3, avidin-c-fms Ig-like 1-5 domain fusion …. Described as above. On the procedure: as §1, §2
For assay [9], the target named is T4, avidin-c-fms Ig-like 1-2 domain fusion …. Described as above. On the procedure: as §1, §2
The target of assay [10] is T1, avidin-c-fms Ig-like 1 domain fusion …. The description is as above. How it is done: as §1, §2
Assay [11] deals with T2, avidin-c-fms Ig-like 1-4 domain fusion …. In words: FACS, biotin beads loaded with the avidin fusion protein, FITC-labeled antibody; Neg CM value of this antibody 4.22. On the procedure: as §1, §2
Assay [12] concerns the target T3, avidin-c-fms Ig-like 1-5 domain fusion …. Described as above. How it is done:
as §1, §2

Assay [13] has as its target T4, avidin-c-fms Ig-like 1-2 domain fusion …. The assay is described as above. On the procedure:
as §1, §2

Assay [14] deals with T1, avidin-c-fms Ig-like 1 domain fusion …. Described as above. How it is done: as §1, §2
Assay [15] shares this target. In words: FACS, biotin beads coated with the avidin fusion protein, FITC-1.109 without competitor.

T4 sequence (P07333 20-223 limits assumed): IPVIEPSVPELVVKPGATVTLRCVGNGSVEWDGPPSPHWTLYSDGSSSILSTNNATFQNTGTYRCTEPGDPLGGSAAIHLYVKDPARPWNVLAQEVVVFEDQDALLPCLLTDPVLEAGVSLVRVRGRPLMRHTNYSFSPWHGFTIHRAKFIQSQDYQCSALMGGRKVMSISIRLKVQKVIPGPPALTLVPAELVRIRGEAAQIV
T2 sequence (P07333 20-418 limits assumed): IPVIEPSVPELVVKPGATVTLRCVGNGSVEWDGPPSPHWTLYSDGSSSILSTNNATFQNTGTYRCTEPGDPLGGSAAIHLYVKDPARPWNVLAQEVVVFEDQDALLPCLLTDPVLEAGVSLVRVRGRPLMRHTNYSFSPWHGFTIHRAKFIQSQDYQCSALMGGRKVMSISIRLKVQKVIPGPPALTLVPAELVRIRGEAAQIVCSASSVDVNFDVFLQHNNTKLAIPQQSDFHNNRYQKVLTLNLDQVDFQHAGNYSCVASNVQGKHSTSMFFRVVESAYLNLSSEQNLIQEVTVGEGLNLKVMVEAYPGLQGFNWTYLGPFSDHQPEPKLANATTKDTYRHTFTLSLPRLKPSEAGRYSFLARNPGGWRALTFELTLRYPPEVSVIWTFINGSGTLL
T3 sequence (P07333 20-512 limits assumed): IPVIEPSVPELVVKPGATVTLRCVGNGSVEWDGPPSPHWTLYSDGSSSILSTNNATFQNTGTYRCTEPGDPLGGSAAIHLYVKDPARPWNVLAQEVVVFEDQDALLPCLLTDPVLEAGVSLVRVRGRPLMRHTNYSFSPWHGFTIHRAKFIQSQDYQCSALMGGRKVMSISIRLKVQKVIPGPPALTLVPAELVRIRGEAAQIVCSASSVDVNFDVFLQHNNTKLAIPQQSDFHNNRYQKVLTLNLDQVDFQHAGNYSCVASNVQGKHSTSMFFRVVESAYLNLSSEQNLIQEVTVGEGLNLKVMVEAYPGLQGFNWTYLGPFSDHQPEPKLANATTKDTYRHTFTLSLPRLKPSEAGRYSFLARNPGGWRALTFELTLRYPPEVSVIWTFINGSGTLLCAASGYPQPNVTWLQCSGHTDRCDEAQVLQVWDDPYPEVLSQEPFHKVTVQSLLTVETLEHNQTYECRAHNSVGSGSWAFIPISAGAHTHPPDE
T1 sequence (P07333 20-126 limits assumed): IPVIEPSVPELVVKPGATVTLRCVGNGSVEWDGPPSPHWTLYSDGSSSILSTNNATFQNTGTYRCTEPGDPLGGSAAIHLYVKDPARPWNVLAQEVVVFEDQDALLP

B1: anti-c-fms IgG2 clone 2.360 (parent form, PT) (antibody, V domains shown)
VH: QVQLVQSGAEVKKPGASVKVSCKVSGYTLTELSMHWVRQAPGKGLEWMGGFDPEDGETIYAQKFQGRVTMTEDTSTDTVYMELSSLRSEDTAVYYCATGVMITFGGVIVGHSYYGMDVWGQGTTVTVSS
VL: DIQMTQSPSSLSASVGDRVTITCRASQGINNYLAWYQQKPGKVPQLLIYVASTLQSGVPSRFSGSGSGTDFTLTISSLQPEDVATYYCQKYNSGPFTFGPGTKVDIKR
modifications: N-terminal glutamine cyclized to pyroglutamic acid; C-terminal lysine absent
notes: Recombinant human IgG2 kappa from COS/PKB cells
With B1, the binding result in [1] was “no binding (tested: 1 µg/ml)”. For the same molecule, the MFI in [2] came to 10.4; in [3] it was 15.4; in [4], 12; in [5], 2.85.

B2: anti-c-fms IgG2 clone 1.2 (parent form, PT) (antibody, V domains shown)
VH: QVQLVQSGAEVKKPGASVKVSCKASGYTFTSYGISWVRQAPGQGLEWMGWISAYNGNTNYAQKLQGRVTMTTDTSTSTAYMELRSLRSDDTAVYYCARESWFGEVFFDYWGQGTLVTVSS
VL: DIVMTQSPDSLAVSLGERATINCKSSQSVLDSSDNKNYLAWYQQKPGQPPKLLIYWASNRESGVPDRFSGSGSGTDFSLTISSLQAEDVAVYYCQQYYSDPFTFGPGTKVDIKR
modifications: N-terminal glutamine cyclized to pyroglutamic acid; C-terminal lysine absent
notes: Recombinant human IgG2 kappa from COS/PKB cells (hybridoma was IgG1); also called 1.2.1; Clone 1.2 PT
On to B2, for which the binding result in [6] is “no binding (tested: 1 µg/ml)”. For the same molecule, the MFI was 134 in assay [7], 342 in assay [8], 148 in assay [9] and 2.89 in assay [10].

B3: anti-c-fms IgG2 clone 1.109 (parent form, PT) (antibody, V domains shown)
VH: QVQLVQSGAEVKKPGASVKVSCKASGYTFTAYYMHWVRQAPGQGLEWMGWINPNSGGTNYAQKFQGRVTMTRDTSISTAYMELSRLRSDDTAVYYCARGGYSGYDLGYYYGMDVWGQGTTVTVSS
VL: DIQMTQSPSSLSASVGDRVTITCQASQNISNFLDWYQQKPGKAPNLLIYDASDLDPGVPSRFSGSGSGTDFTFTISSLQPEDIATYYCQQYVSLPLTFGGGTKVEIKR
modifications: N-linked glycosylation site at Asn-28 in CDR1, reported as likely occupied; N-terminal glutamine cyclized to pyroglutamic acid; C-terminal lysine absent
notes: Recombinant human IgG2 kappa from COS/PKB cells (hybridoma was IgG1)
In the case of B3, the MFI came out at 215 in [11], 668 in assay [12], 232 in [13] and 2.93 in assay [14]. Moreover, the binding result in assay [15] is “no binding (tested: 1 µg/ml)”.

For the origin of these results see patent publication US20090155164A1 (Amgen, published 2009).
